We go through three molecules from paper PMC13181292 (2026).

Data set [1] addresses CLEC-2 C-type lectin-like domain (Mus musculus) (UniProt Q9JL99). Description: SPR. The conditions noted are these: cited from earlier work.
For data set [2], the target named is CLEC-2 C-type lectin-like domain (Homo sapiens) (UniProt Q9P126). Description: SPR. The settings on record: cited from earlier work.
Data set [3] deals with the molecule itself. Description: divalent nanobody Nb2-2 (100 nM).

CLEC-2 C-type lectin-like domain (Homo sapiens), sequence (Q9P126 109-217): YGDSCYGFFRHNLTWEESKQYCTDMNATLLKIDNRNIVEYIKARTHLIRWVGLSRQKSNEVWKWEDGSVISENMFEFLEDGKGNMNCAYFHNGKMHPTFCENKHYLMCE
CLEC-2 C-type lectin-like domain (Mus musculus), sequence (Q9JL99 109-217): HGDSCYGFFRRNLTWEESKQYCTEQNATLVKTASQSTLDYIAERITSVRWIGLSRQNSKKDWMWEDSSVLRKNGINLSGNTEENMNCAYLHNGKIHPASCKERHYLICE

As usually defined, the Kd is the constant that tells how readily two partners part at equilibrium. Consider “CLEC-2 C-type lectin-like domain (from UniProt Q9JL99)”, for which the Kd in data set [1] is 499 nM.
Take “CLEC-2 C-type lectin-like domain (from UniProt Q9P126)”: the Kd in data set [2] is 278 nM.

B1: SNAP-tag-GPVI and HaloTag-GPVI coexpressed on CHO-K1 cells (receptor)
chain: QSGPLPKPSLQALPSSLVPLEKPVTLRCQGPPGVDLYRLEKLSSSRYQDQAVLFIPAMKRSLAGRYRCSYQNGSLWSLPSDQLELVATGVFAKPSLSAQPGPAVSSGGDVTLQCQTRYGFDQFALYKEGDPAPYKNPERWYRASFPIITVTAAHSGTYRCYSFSSRDPYLWSAPSDPLELVVTGTSVTPSRLPTEPPSPVAEFSEATAELTVSFTNEVFTTETSRSITASPKESDSPAGPARQYYTKGNLVRICLGAVILIILAGFLAEDWHSRRKRLRHRGRAVQRPLPPLPPLPLTRKSNGGQDGGRQDVHSRGLCS
modifications: SNAP-tag labeled with SNAP-Surface Alexa Fluor-647; HaloTag labeled with Janelia Fluor-549
What is called koff is the rate constant with which the complex falls apart. Consider B1, for which the koff in data set [3] worked out at 0.95 s⁻¹.
